# Reference: article PMC4289673 (Proteins, 2014)
# Target: the molecule itself
# Test: crystal structure
protein,measurement,value
R47A hACMSD (enzyme) not shown,binding result,binds
